Where two headings read alike, the source gives them in different places. Blank lines part the entries; values can stand above or below the binder they belong to.
Assays:
[1] = molecular target: T1, ErbB3 receptor, wild type full length, on cells (MALME-3M, ADRr/AdrR, CHO K1 transfectants) (human, UniProt P21860 20-1342); test: flow cytometry on MALME-3M cells; Fab at about 500 nM; goat anti-human Alexa 647 secondary antibody
T1 construct: whole, on cells; also called HER3

[2] = molecular target: T2, full-length ErbB3 Y104A mutant on CHO K1 cells (human, UniProt P21860 20-1342); test: FACS on CHO K1 cells stably expressing full-length ErbB3 Y104A; Ab #6 directly labelled with Alexa 488 (FL1)
T2 construct: whole, on cells; Numbering as for m15
Text: (§1) CHO K1 cells expressing wild type full-length ErbB3 served as a positive control.

[3] = molecular target: T3, ErbB3 as used in the surface plasmon resonance (Flexchip) and KinExA assays (human, UniProt P21860 20-643, limits assumed); test: Kinetic Exclusion Assay (KinExA); KinExA
[4] = molecular target: T4, full-length ErbB3 D93A mutant on CHO K1 cells (human, UniProt P21860 20-1342); test: FACS on CHO K1 cells stably expressing full-length ErbB3 D93A; Ab #6 directly labelled with Alexa 488 (FL1)
T4 construct: whole, on cells
Text: as §1

[5] = molecular target: T3, ErbB3 as used in the surface plasmon …; test: Kinetic Exclusion Assay (KinExA); KinExA, not Flexchip SPR
[6] = molecular target: T1, ErbB3 receptor, wild type full length, …; test: cell-based or functional assay
[7] = molecular target: T5, full-length ErbB3 L102A mutant on CHO K1 cells (human, UniProt P21860 20-1342); test: FACS on CHO K1 cells stably expressing full-length ErbB3 L102A; Ab #6 directly labelled with Alexa 488 (FL1)
T5 construct: whole, on cells; Numbering as for m15
Text: as §1

[8] = molecular target: T1, ErbB3 receptor, wild type full length, …; test: cell binding assay, flow cytometry on MALME-3M cells, one-site binding fit
Experimental: (§2) The concentrations of the diluted antibody ranged from 200 nM to 0.4 nM.
(§3) Aliquoted cells in the 96-well plate were incubated with the protein dilutions for 30 minutes at room temperature on a platform shaker and washed 3 times with 300 μl BD stain buffer. […] Finally, cells were washed twice, pelleted and resuspended in 250 μl BD stain buffer+0.5 μg/ml propidium iodide. Analysis of 10,000 cells was done in a FACScalibur flow cytometer using the FL4 channel. MFI values and the corresponding concentrations of the anti-ErbB3-antibodies were plotted on the y-axis and x-axis, respectively. The KD of the molecule was determined by GraphPad Prism using the one-site binding model for a non-linear regression curve.
(§4) The KD value was calculated based on the formula Y=Bmax*X/KD+X (Bmax=fluorescence at saturation. X=antibody concentration. Y=degree of binding).

[9] = molecular target: T1, ErbB3 receptor, wild type full length, …; test: flow cytometry on MALME-3M cells, Alexa 647 goat anti-human IgG, one-site binding fit
Experimental: as §2, §3, §4

[10] = molecular target: T3, ErbB3 as used in the surface plasmon …; test: surface plasmon resonance (Flexchip assay); Flexchip SPR, not KinExA
[11] = molecular target: bovine serum albumin (BSA), unrelated protein control (bovine, UniProt P02769 25-607); test: ELISA on plate-coated protein, HRP anti-human IgG, chemiluminescence
bovine serum albumin (BSA), unrelated protein control, sequence (P02769 25-607 limits assumed): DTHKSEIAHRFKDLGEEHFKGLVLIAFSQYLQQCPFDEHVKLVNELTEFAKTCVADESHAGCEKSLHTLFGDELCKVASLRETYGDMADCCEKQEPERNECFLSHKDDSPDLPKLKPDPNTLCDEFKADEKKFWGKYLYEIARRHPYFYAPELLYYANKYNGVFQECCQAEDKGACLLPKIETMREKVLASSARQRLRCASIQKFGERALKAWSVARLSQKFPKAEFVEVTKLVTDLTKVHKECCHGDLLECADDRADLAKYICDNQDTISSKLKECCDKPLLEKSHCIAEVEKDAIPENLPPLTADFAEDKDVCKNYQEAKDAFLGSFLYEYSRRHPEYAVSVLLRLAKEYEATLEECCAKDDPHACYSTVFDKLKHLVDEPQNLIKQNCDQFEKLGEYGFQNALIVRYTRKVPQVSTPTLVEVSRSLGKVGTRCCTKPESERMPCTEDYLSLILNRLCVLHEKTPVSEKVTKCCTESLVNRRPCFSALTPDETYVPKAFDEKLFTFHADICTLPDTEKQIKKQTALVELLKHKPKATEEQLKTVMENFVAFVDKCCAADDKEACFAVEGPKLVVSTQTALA
Experimental: (§5) Specifically, 96-well Nunc Maxisorb plates were coated with 50 μl of 5 μg/ml protein (recombinant human ErbB3, recombinant human EGFR or unrelated protein (BSA)) and incubated overnight at room temperature. The next morning, plates were washed 3 times with 1000 μl/well of PBST (0.05% Tween-20) in the BioTek plate washer. The wells were blocked for 1 hr at room temperature with 2% BSA in PBS. The plates were washed 3 times with 1000 μl/well of PBST (0.05% Tween-20) in the BioTek plate washer. […] All samples were run in duplicate and incubated for 2 hrs at 4° C. on a plate shaker. The plates were washed plates 3 times with 1000 μl/well of PBST (0.05% Tween-20) in the BioTek plate washer. 50 μl of human IgG detection antibody (HRP conjugated (Bethyl Inc; 1:75000 dilution in 2% BSA, PBST)) was added and the plates were incubated for 1 hr at room temperature. The plates were washed plate 3 times with 1000 μl/well of PBST (0.05% Tween-20) in the BioTek plate washer. 50 μL of Supersignal Pico ELISA substrate was added and the plate was read on the Fusion plate reader. The data was analyzed using the EXCEL program. Duplicate samples were averaged and the error bars represent the standard deviation between the two replicates.

[12] = molecular target: recombinant human EGFR (coated on ELISA plate) (human, UniProt P00533 25-645, limits assumed); test: as above
Experimental: as §5

TGF-α (control in ELISA) = molecular target: T6, TGF-α (control in ELISA) (UniProt P01135 40-89); test: as above
T6 construct: also called transforming growth factor-α
Experimental: as §5

[13] = molecular target: T1, ErbB3 receptor, wild type full length, …; test: flow cytometry on MALME-3M cells (ErbB1 negative, ErbB3 positive), biotinylated BTC + streptavidin-PE
Experimental: (§6) Cells were then washed twice with 500 μl BD stain buffer and incubated with 100 μl of a 1:200 dilution of streptavidin-PE (PE=phycoerythrin) (Invitrogen) in BD stain buffer for 45 minutes. Finally, cells were washed twice, resuspended in 300 μl of BD stain buffer and analyzed in a FACScalibur flow cytometer. […] To assess background staining from the streptavidin-PE conjugate, cells were incubated with 100 μl of a 1:200 dilution of streptavidin-PE only for 45 minutes.

[14] = molecular target: T7, EGFR (ErbB1) on ADRr cells (human, UniProt P00533 25-1210); test: flow cytometry on ADRr cells, biotinylated BTC + streptavidin-PE; BTC concentration not printed on the sheet (legend paragraph 39 names 10 nM)
T7 construct: whole, on cells
Experimental: as §6

[15] = molecular target: T1, ErbB3 receptor, wild type full length, …; test: flow cytometry on MALME-3M cells, Alexa 647 goat anti-human IgG, one-site binding fit; remark: listed apart in the source
Experimental: as §2, §3, §4

[16] = molecular target: T3, ErbB3 as used in the surface plasmon …; test: surface plasmon resonance (Flexchip assay); Flexchip SPR
[17] = molecular target: T1, ErbB3 receptor, wild type full length, …; test: flow cytometry, biotinylated heregulin EGF + streptavidin-PE; cells MALME3 according to the sheet's title and legend paragraph 42 (Example 10 names ADRr cells)
Experimental: Cells were then washed twice with 500 μl BD stain buffer and incubated with 100 μl of a 1:200 dilution of streptavidin-PE (PE=phycoerythrin) (Invitrogen) in BD stain buffer for 45 minutes. Finally, cells were washed twice, resuspended in 300 μl of BD stain buffer and analyzed in a FACScalibur flow cytometer.

B1: Ab#14 (Fab, V domains shown)
VH: EVQLLESGGGLVQPGGSLRLSCAASGFTFSAYGMGWVRQAPGKGLEWVSYISPSGGHTKYADSVKGRFTISRDNSKNTLYLQMNSLRAEDTAVYYCAKVLETGLLVDAFDIWGQGTMVTVSS
VL: QYELTQPPSVSVYPGQTASITCSGDQLGSKFVSWYQQRPGQSPVLVMYKDKRRPSEIPERFSGSNSGNTATLTISGTQAIDEADYYCQAWDSSTYVFGTGTKVTVL
notes: also called Fab form of Ab #14; MM 121-14
binding result [1]: binds

B2: Antibody #6 (Ab #6), human anti-ErbB3 antibody (antibody, V domains shown)
VH: EVQLLESGGGLVQPGGSLRLSCAASGFTFSHYVMAWVRQAPGKGLEWVSSISSSGGWTLYADSVKGRFTISRDNSKNTLYLQMNSLRAEDTAVYYCTRGLKMATIFDYWGQGTLVTVSS
VL: QSALTQPASVSGSPGQSITISCTGTSSDVGSYNVVSWYQQHPGKAPKLIIYEVSQRPSGVSNRFSGSKSGNTASLTISGLQTEDEADYYCCSYAGSSIFVIFGGGTKVTVL
notes: also called antibody number 6; MM121
binding result [2]: no binding
koff [3]: 0.00011 s⁻¹
kon [3]: 143000 M⁻¹ s⁻¹
binding result [4]: no binding
Kd [5]: 0.769 nM
IC50 of inhibition of BTC-induced ErbB3 phosphorylation (ELISA, ADRr cells) [6]: 5.9 nM
IC50 of inhibition of HRG1-beta-induced ErbB3 phosphorylation (ELISA, ADRr cells) [6]: 2.4 nM
binding result [7]: no binding
Kd [8]: ~4 nM
EC50 (read off the curve) [9]: 1 to 2 nM
Kd [10]: ~4 nM

B5: Antibody #3 (Ab #3), human anti-ErbB3 antibody (antibody, V domains shown)
VH: EVQLLESGGGLVQPGGSLRLSCAASGFTFSAYNMRWVRQAPGKGLEWVSVIYPSGGATRYADSVKGRFTISRDNSKNTLYLQMNSLRAEDTAVYYCARGYYYYGMDVWGQGTLVTVSS
VL: QSVLTQPPSASGTPGQRVTISCSGSDSNIGRNYIYWYQQFPGTAPKLLIYRNNQRPSGVPDRISGSKSGTSASLAISGLRSEDEAEYHCGTWDDSLSGPVFGGGTKLTVL
EC50 (read off the curve) [15]: ~8 nM
Kd [8]: ~1.3 nM
Kd [16]: ~8 nM

B6: biotinylated heregulin EGF (ligand, UniProt Q02297-6 177-241, looked up)
chain: SHLVKCAEKEKTFCVNGGECFMVKDLSNPSRYLCKCPNEFTGDRCQNYVMASFYKHLGIEFMEAE
modifications: also: biotinylated, site not given here
notes: domain: heregulin EGF
binding result [17]: binds

Second part, the binder after the results:

binding result [11]: no binding (tested: 1000 nM)
binding result [12]: no binding (tested: 1000 nM)
binding result (TGF-α (control in ELISA)): no binding (tested: 1000 nM)
B3: Ab #6, IgG2 isotype (antibody, V domains shown)
VH: B2 VH
VL: B2 VL
notes: Human IgG2; also called IgG2 isotype of Ab #6

binding result [13]: no binding (tested: 500 nM)
binding result [14]: binds
B4: betacellulin (BTC) (ligand, UniProt P35070 32-111, looked up)
chain: DGNSTRSPETNGLLCGDPEENCAATTTQSKRKGHFSRCPKQYKHYCIKGRCRFVVAEQTPSCVCDEGYIGARCERVDLFY
modifications: biotinylated (Example 7)
notes: also called biotinylated BTC
